The conditions of this data set: Carica papaya, Thermal, DSC, glycine-HCl 5 mM, reversible: yes, whole UniProt chain shown.

Several values for one entry are separate records, joined by “and”; a condition that tells them apart may be missing. Identical values can stand only once.

B1: Papain wild type, P00784 (protein)
chain: MAMIPSISKLLFVAICLFVYMGLSFGDFSIVGYSQNDLTSTERLIQLFESWMLKHNKIYKNIDEKIYRFEIFKDNLKYIDETNKKNNSYWLGLNVFADMSNDEFKEKYTGSIAGNYTTTELSYEEVLNDGDVNIPEYVDWRQKGAVTPVKNQGSCGSCWAFSAVVTIEGIIKIRTGNLNEYSEQELLDCDRRSYGCNGGYPWSALQLVAQYGIHYRNTYPYEGVQRYCRSREKGPYAAKTDGVRQVQPYNEGALLYSIANQPVSVVLEAAGKDFQLYRGGIFVGPCGNKVDHAVAAVGYGPNYILIKNSWGTGWGENGYIRIKRGTGNSYGVCGLYTSSFYPVKN
A word on the Tm: it is the temperature at the midpoint of the melting transition. As to B1, the “unfolding enthalpy (calorimetric)” value is, setting by setting: (pH 1.9) 119 kcal/mol and 98.7 kcal/mol; (pH 2.4) 133 kcal/mol and 143 kcal/mol and 111 kcal/mol; (pH 2.9) 154 kcal/mol and 162 kcal/mol; (pH 3.5) 206 kcal/mol and 226 kcal/mol and 189 kcal/mol; (pH 3.9) 229 kcal/mol and 232 kcal/mol and 198 kcal/mol. For the same protein, the “unfolding enthalpy (van 't Hoff)” value is 65.2 kcal/mol and 50.6 kcal/mol (pH 1.9); 72.6 kcal/mol and 82.3 kcal/mol and 62.9 kcal/mol (pH 2.4); 79.6 kcal/mol and 89.2 kcal/mol (pH 2.9); 113 kcal/mol and 118 kcal/mol and 98.9 kcal/mol (pH 3.5); 132 kcal/mol and 130 kcal/mol and 114 kcal/mol (pH 3.9). Besides, the Tm (pH 2.9) was 69.5 °C and 70.4 °C.

Values taken from FireProtDB (doi:10.1111/j.1432-1033.1993.tb17904.x).
